Each binder was assayed against acetylcholine receptor (assay: SPR, AchR immobilised on CM5 chip, peptide 10 uM).

| Binding affinity (RU) | Binder |
| --- | --- |
| 19 RU | RIPNKR [6mer-2-757] |
| 21 RU | KMNAKK [6mer-2-735] |
| 12 RU | RPHWKR [6mer-2-751] |
| 29 RU | KINWRR [6mer-2-752] |
| 17 RU | KNTERR [6mer-2-745] |
| 24 RU | RASWRR [6mer-2-713] |
| 30 RU | RCPDKR [6mer-2-729] |
| 17 RU | KFDARK [6mer-2-774] |
| 29 RU | KIPHRR [6mer-2-712] |
| 19 RU | KMKERR [6mer-2-763] |
| 18 RU | RYEHRR [6mer-2-753] |
| 11 RU | RDMIKR [6mer-2-727] |
| 13 RU | RCPFRK [6mer-2-769] |
| 26 RU | KITARR [6mer-2-771] |
| 32 RU | RATHRK [6mer-2-715] |
| 29 RU | RANFRR [6mer-2-747] |
| 29 RU | KIKPRR [6mer-2-719] |
| 12 RU | KYTFKR [6mer-2-718] |
| 18 RU | KEMIKR [6mer-2-702] |
| 22 RU | KYMGRK [6mer-2-768] |
| 31 RU | RIWPKR [6mer-2-709] |
| 23 RU | RPTFRK [6mer-2-766] |
| 30 RU | KIDVRK [6mer-2-714] |
| 27 RU | KCEDKK [6mer-2-698] |
| 24 RU | KYTMKK [6mer-2-724] |
| 24 RU | KFEERK [6mer-2-762] |

| Binding affinity (RU) | Binder |
| --- | --- |
| 29 RU | KECGRR [6mer-2-711] |
| 29 RU | KPWFKK [6mer-2-738] |
| 26 RU | RNTHKR [6mer-2-730] |
| 15 RU | KCPGKR [6mer-2-717] |
| 18 RU | RTWKKR [6mer-2-716] |
| 12 RU | KIDIRR [6mer-2-740] |
| 18 RU | KHTMKR [6mer-2-743] |
| 29 RU | RTPARK [6mer-2-733] |
| 24 RU | KPNMKK [6mer-2-770] |
| 23 RU | KEDMKR [6mer-2-723] |
| 12 RU | KADGRR [6mer-2-754] |
| 29 RU | RTEPRK [6mer-2-761] |
| 19 RU | KASWKK [6mer-2-731] |
| 20 RU | KMWKRK [6mer-2-749] |
| 15 RU | RPWHKK [6mer-2-700] |
| 19 RU | KCAVKK [6mer-2-697] |
| 25 RU | KAHMKK [6mer-2-725] |
| 11 RU | KPDARR [6mer-2-773] |
| 13 RU | RICGRK [6mer-2-767] |
| 29 RU | RKCVKR [6mer-2-750] |
| 32 RU | KNNWRR [6mer-2-742] |
| 23 RU | RMTMKK [6mer-2-728] |
| 17 RU | RIHAKK [6mer-2-739] |
| 18 RU | RFDEKK [6mer-2-759] |
| 18 RU | RYNDKK [6mer-2-755] |
| 21 RU | RNEHRR [6mer-2-722] |

| Binding affinity (RU) | Binder |
| --- | --- |
| 23 RU | KFTDRK [6mer-2-706] |
| 14 RU | RNKKKK [6mer-2-710] |
| 15 RU | RHPAKK [6mer-2-772] |
| 21 RU | RTWKRK [6mer-2-707] |
| 26 RU | RHSKKK [6mer-2-721] |
| 20 RU | KDWHRK [6mer-2-704] |
| 29 RU | KNNHKK [6mer-2-736] |
| 17 RU | KHCHRR [6mer-2-734] |
| 31 RU | RNAVKK [6mer-2-764] |
| 24 RU | KPTWRK [6mer-2-732] |
| 18 RU | RFSFKK [6mer-2-758] |
| 25 RU | KHHKKK [6mer-2-726] |
| 23 RU | KTWAKR [6mer-2-701] |
| 30 RU | KNEKKR [6mer-2-741] |
| 29 RU | RAWVKK [6mer-2-708] |
| 11 RU | RENFKK [6mer-2-705] |
| 15 RU | KIPVKK [6mer-2-760] |
| 19 RU | KDHPRK [6mer-2-744] |
| 14 RU | RTMHKR [6mer-2-703] |
| 26 RU | KPTNRK [6mer-2-756] |
| 29 RU | RATNRK [6mer-2-720] |
| 23 RU | KNAGKR [6mer-2-699] |
| 26 RU | RIKVRK [6mer-2-746] |
| 28 RU | RFDKKR [6mer-2-748] |
| 19 RU | KDSVRR [6mer-2-737] |
| 23 RU | KHSPRK [6mer-2-765] |
